The values below come from article PMC2791216, “Phosphorylation of S776 and 14-3-3 Binding Modulate Ataxin-1 Interaction with Splicing Factors” (PLoS ONE, 2009).

One test concerns the target U2AF65 UHM, 369-475 (UniProt P26368). As to the kind of experiment: NMR 15N-HSQC titration. To be noted: reference: unphosphorylated Atx1 ULM peptide; sites S776.
In test [1] the target is T1, 14-3-3ζ (Homo sapiens, UniProt P63104).
T1 sequence (P63104 1-245): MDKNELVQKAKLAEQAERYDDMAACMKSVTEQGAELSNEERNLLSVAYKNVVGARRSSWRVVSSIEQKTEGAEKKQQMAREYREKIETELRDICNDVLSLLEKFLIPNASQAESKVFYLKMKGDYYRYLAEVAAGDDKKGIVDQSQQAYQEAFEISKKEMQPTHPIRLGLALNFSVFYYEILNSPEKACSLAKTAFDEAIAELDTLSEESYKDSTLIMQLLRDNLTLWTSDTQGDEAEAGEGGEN
The test can be described thus: ITC binding of Atx1 ULM peptides to 14-3-3ζ. To be noted: 50 mM sodium phosphate buffer (pH 7.0), 150 mM NaCl, 5 mM DTT, 295 K, average of three measurements, n.b. = binding not detectable. An excerpt: Since S776 phosphorylated Atx1 binds also the 14-3-3 protein [17], we compared the affinity of this interaction. We used a peptide C-terminally extended as compared to the one previously designed to probe interaction with U2AF65 UHM so to include P778 and encompass the complete 14-3-3 ‘mode II’ recognition motif (Atx1_pS_ULM_PE, residues 769–779). We compared the affinities of this peptide with the non-phosphorylated version (Atx1_S_ULM_PE) and with the shorter Atx1_pS_ULM peptide. […] We chose to work with isoform ζ (14-3-3ζ) since it is present in high concentrations in the neuronal nucleus of all the major affected areas in SCA1 brains.
All the proteins were dialyzed against 50 mM sodium phosphate buffer (pH 7.0), 150 mM NaCl and 5 mM DTT. Solutions of 0.025–0.4 mM UHM proteins in the cell were titrated by injections of a total of 295 µl of 0.25–3.9 mM peptide in the syringe in 21 aliquots. The concentrations of the 14-3-3ζ and ATX1 ULM ligands were adjusted to 0.012–0.037 mM and 0.1–0.4 mM respectively. Data were processed with the software MicroCal Origin version 5.0 provided by the manufacturer. All dissociation constants were averages of three measurements.

The target in test [2] is T2, U2AF65 UHM (residues 369–475) (UniProt P26368 369-475).
T2 construct: U2AF65 (splicing factor U2AF 65 kDa subunit), UHM domain, residues 369-475; The His6-GST tags (vector pETM30) are TEV-cleavable; 15N-labelled for the NMR experiments, unlabelled for ITC; also called U2AF65 UHM domain; source: E. coli BL21 (DE3)pLysS, purified (Ni-NTA, SEC)
As to the kind of experiment: ITC; 50 mM sodium phosphate buffer (pH 7.0), 150 mM NaCl, 5 mM DTT; 295 K; protein in the cell, peptide in the syringe; single-site model; averages of three measurements. To be noted: both partners purified. Background: ITC needs no label: the signal is the heat of the interaction.

Test [3] concerns the target T3, SPF45 UHM (residues 301–401) (UniProt Q96I25 301-401).
T3 construct: SPF45, also known as RBM17, UHM domain, residues 301-401; The His6-GST tags (vector pETM30) are TEV-cleavable; also called RBM17 UHM; source: E. coli BL21 (DE3)pLysS, purified (Ni-NTA, SEC)
T3 sequence (looked up): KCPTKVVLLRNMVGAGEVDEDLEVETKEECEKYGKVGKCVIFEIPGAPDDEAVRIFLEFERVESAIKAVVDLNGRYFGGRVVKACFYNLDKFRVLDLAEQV
The test is described as above. The settings on record: both partners purified.

In test [4] the target is T4, 14-3-3ζ (UniProt P63104 1-245).
T4 construct: 14-3-3 protein, isoform zeta; also called 14-3-3 isoform ζ
T4 sequence (looked up): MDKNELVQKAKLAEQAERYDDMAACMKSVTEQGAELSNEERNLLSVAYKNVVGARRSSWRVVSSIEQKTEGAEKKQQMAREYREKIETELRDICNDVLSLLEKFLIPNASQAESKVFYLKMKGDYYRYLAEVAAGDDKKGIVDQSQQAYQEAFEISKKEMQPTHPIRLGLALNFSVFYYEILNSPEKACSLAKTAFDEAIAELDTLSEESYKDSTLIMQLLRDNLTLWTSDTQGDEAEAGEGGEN
Described as above. The settings on record: both partners purified.

The target in test [5] is T2, U2AF65 UHM (residues 369–475). The test can be described thus: ITC; 20 mM sodium phosphate buffer (pH 6.4), 30 mM NaCl, 5 mM DTT; 295 K; protein in the cell, peptide in the syringe. To be noted: both partners purified.

Square brackets hold non-standard residues; d marks the D form. Ends that are not written are not given here. Peptide text beside a SMILES is read from it. pS = N[C@@H](COP(=O)(O)O)C(=O)O

The term Kd denotes the free concentration of one partner at which half of the binding sites on the other are occupied at equilibrium, for simple one-to-one binding. A high value points to lower affinity.

T2 sequence (P26368 369-475, one chain of several): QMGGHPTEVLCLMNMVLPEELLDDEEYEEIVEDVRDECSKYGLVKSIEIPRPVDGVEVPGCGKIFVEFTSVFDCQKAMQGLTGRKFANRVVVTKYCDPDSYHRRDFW
U2AF65 UHM, 369-475, sequence (P26368 whole entry, looked up, tested part not stated, one chain of several): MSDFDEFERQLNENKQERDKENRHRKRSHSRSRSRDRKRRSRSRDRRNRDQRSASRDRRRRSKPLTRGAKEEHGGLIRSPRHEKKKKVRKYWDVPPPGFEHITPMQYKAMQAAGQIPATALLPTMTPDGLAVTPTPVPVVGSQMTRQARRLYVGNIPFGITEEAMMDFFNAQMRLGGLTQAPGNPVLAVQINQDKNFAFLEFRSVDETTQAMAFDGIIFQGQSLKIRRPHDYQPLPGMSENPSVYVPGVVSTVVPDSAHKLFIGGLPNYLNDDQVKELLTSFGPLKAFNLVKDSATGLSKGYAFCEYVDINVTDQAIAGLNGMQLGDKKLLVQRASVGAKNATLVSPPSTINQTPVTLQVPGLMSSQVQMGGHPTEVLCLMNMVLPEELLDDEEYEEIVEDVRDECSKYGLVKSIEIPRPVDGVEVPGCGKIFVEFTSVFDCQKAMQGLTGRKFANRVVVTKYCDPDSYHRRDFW

As to “Ataxin-1 (Atx1) 769-777 (from UniProt P54253) pS776 Atx1 ULM peptide”, the “binding against the reference” value in the test with U2AF65 UHM, 369-475 is listed as “same”.
In the case of ATRKRRWDAPE [Atx1_D_ULM_PE], the “Kd, 14-3-3ζ (ITC)” value at 14-3-3ζ [1] is “n.b”.
Still for that read-out and setting: the result for ATRKRRWAAPE [Atx1_A_ULM_PE] reads “n.b”.
ATRKRRWSAPE [Atx1_S_ULM_PE]: on 14-3-3ζ [1], the “Kd, 14-3-3ζ (ITC)” value was “n.b. ^c”.
Regarding `C[C@H](N)C(=O)N[C@H](C(=O)N[C@@H](CCCNC(=N)N)C(=O)N[C@@H](CCCCN)C(=O)N[C@@H](CCCNC(=N)N)C(=O)N[C@@H](CCCNC(=N)N)C(=O)N[C@@H](Cc1c[nH]c2ccccc12)C(=O)N[C@@H](COP(=O)(O)O)C(=O)N[C@@H](C)C(=O)N1CCC[C@H]1C(=O)N[C@@H](CCC(=O)O)C(=O)O)[C@@H](C)O` [Atx1_pS_ULM_PE] (H-ATRKRRW[pS]APE-OH), binding on 14-3-3ζ [1] was put at a Kd of 400 ± 30 nM.

B1: Atx1_S_ULM_PE (peptide)
peptide: ATRKRRWSAPE
notes: Ataxin-1 (Atx1), residues 769-779; source: synthetic peptide; bought: Pepceuticals Limited
On to B1, for which the Kd came out at 9.2 ± 0.3 µM in test [2] and 23.4 ± 1.5 µM in test [3].

B2: Atx1_A_ULM_PE (peptide)
peptide: ATRKRRWAAPE
notes: also called S776A-mutated peptide; S776A mutant peptide; source: synthetic peptide; bought: Pepceuticals Limited
In the case of B2, the Kd is 8.9 ± 0.4 µM in test [2] and 22.5 ± 0.6 µM in test [3].

B3: Atx1_D_ULM_PE (peptide)
peptide: ATRKRRWDAPE
notes: also called S776D peptide; S776D mutant peptide; source: synthetic peptide; bought: Pepceuticals Limited
As for B3, the figures for the Kd in test [2] and in test [3] were 6.4 ± 0.7 µM and 0.9 ± 0.07 µM, respectively.

B4: Atx1_pS_ULM (peptide)
peptide: ATRKRRW[pS]A
notes: Ataxin-1 (Atx1), residues 769-777, S776 phosphorylated; also called phosphorylated Atx1 ULM; source: synthetic peptide; bought: Pepceuticals Limited
For B4, the values for the Kd (in test [2]; in the test with 14-3-3ζ [4]; in test [5]) were 18.4 ± 0.7 µM, 1000 ± 100 nM and 600 ± 80 nM, respectively.

B5: Atx1_pS_ULM_PE (peptide)
peptide: ATRKRRW[pS]APE
notes: Ataxin-1 (Atx1), residues 769-779, S776 phosphorylated; source: synthetic peptide; bought: Pepceuticals Limited
Take B5: the Kd in test [2] stood at 35.8 ± 1.3 µM; in test [3], 40 ± 1.6 µM.
